Assay results published in patent US9879094B2, “Nucleic acid molecules encoding for BACE1 antibodies” (Genentech, Inc., priority 2010, dated 2018).
Where “and” joins values, the source holds several entries; their conditions need not be identical. Equal entries are not always repeated.

Key:
Aβ1-40 in wild-type mice = test: Wild-type mice, single IV dose, Aβ1-40 levels; type: in vivo, mouse; settings: 50 mg/kg single IV
Protocol: The ability of anti-BACE1 antibodies YW412.8.31 to modulate amyloidogenic processing was also assessed in wild-type mice. Briefly, experiments were performed as described above. A single dose of control IgG antibody or YW412.8.31 anti-BACE1 antibody (50 mg/kg) was delivered systemically by intravenous (IV) injection to wild-type mice. After 24 or 48 hours, plasma and brain samples were harvested and Aβ1-40 levels were analyzed. The concentrations of total mouse Aβ1-40 in plasma and brain were determined using a sandwich ELISA following similar procedures described below for measuring total anti-BACE1 antibody concentrations. Briefly, rabbit polyclonal antibody specific for the C terminus of Aβ1-40 (Millipore, Bedford, Mass.) was coated onto plates, and biotinylated anti-mouse Aβ monoclonal antibody M3.2 (Covance, Dedham, Mass.) was used for detection. The assay had lower limit of quantification values of 1.96 pg/ml in plasma and 39.1 pg/g in brain. As is shown in FIG. 16, panel B, Plasma Aβ1-40 was reduced by 35% and cortical Aβ1-40 was reduced by 20%.

[1] = system: Aβ1-40 and Aβ1-42 in hAPP transgenic mice; test: hAPP transgenic mice, continuous ICV infusion, Aβ levels; type: in vivo, mouse; settings: ICV infusion 7 days
Protocol: Similar experiments were also performed in which YW412.8.31 anti-BACE1 antibody was delivered systemically or directly into hAPP transgenic mice brains by continuous ICV infusion. For ICV delivery, antibody was delivered continuously for 7 days via an Alzet osmotic minipump (model 2001) implanted unilaterally. The amount of YW412.8.31 antibody delivered was 0.041 mg/day (low dose) or 0.41 mg/day (high dose); 0.33 mg/day Control IgG was delivered to the control group. At euthanasia, plasma, cortex, and hippocampus were harvested and analyzed for levels of soluble Aβ1-40 and Aβ1-42 by ELISA (The Genetics Company) following manufacturer's instructions.

[2] = Antibody concentration in serum and brain of wild-type mice; type: in vivo, mouse
Protocol: Total anti-BACE1 antibody concentrations in mouse serum and brain samples were measured as follows. Antibody concentrations in mouse serum and brain samples were measured using an enzyme-linked immunosorbent assay (ELISA). NUNC 384 well Maxisorp immunoplates (Neptune, N.J.) were coated with F(ab′)2 fragment of donkey anti-human IgG, Fc fragment specific polyclonal antibody (Jackson ImmunoResearch, West Grove, Pa.) overnight at 4° C. Plates were blocked with phosphate-buffered saline (PBS) containing 0.5% bovine serum albumin (BSA) for 1 hour at room temperature the next day. Each antibody (Control IgG and anti-BACE1) was used as a standard to quantify the respective antibody concentrations. After washing plates with PBS containing 0.05% Tween 20 using a microplate washer (Bio-Tek Instruments, Inc., Winooski, Vt.), standards and samples diluted in PBS containing 0.5% BSA, 0.35 M NaCl, 0.25% CHAPS, 5 mM EDTA, 0.05% Tween 20 and 15 ppm Proclin were incubated on plates for 2 hours at room temperature with mild agitation. Bound antibody was detected with horseradish peroxidase conjugated F(ab′)2 goat anti-human IgG, Fc specific polyclonal antibody (Jackson ImmunoResearch). Finally, plates were developed using the substrate 3,3′,5,5′-tetramethyl benzidine (TMB) (KPL, Inc., Gaithersburg, Md.). Absorbance was measured at a wavelength of 450 nm with a reference of 630 nm on a Multiskan Ascent reader (Thermo Scientific, Hudson, N.H.). Concentrations were determined from the standard curve using a four-parameter non-linear regression program.

mouse cortical neurons = test: Antibody internalization in primary neurons; type: cell-based
Protocol: BACE1 is known to be expressed intracellularly, particularly in the Golgi. To ascertain whether or not YW412.8.31 interacts with BACE1 in an intracellular environment, internalization studies were performed. One set of neuronal cultures was prepared from E13.5 dorsal root ganglia (DRG) explants, and a second set of neuronal cultures was prepared from E16.5 dissociated cortical neurons from BACE1+/+ or BACE1−/− mice and cultured for 24 or 72 hours, respectively, at 37° C. Media containing 0.5 μM YW412.8.31 anti-BACE1 antibody was added to the cultures for time periods varying from 30 minutes to 2 hours, and incubated at either 4° C. or 37° C. Unbound antibody was washed out thoroughly with PBS after treatment. […] Bound antibody was detected using a secondary Alexa 568-conjugated anti-Human IgG1 antibody (Molecular Probes) according to the manufacturer's directions.
Additionally, mouse cortical neurons were cultured in the presence of YW412.8.31 anti-BACE1 antibody or a control IgG for 10 minutes or 3 hours, after which the antibody was detected by immunostaining Neuronal cultures were prepared from E15.5 dissociated cortical neurons, and cultured for 14 DIV. […] Bound antibody was detected using an Alexa 568-conjugated anti-Human IgG1 secondary antibody (Molecular Probes). […]

[3] = 30 mg/kg IP every 4 days, 3 doses
[4] = 100 mg/kg IP every 4 days, 3 doses

B1: YW412.8.31: affinity matured form of YW412.8 anti-BACE1 antibody (antibody, V domains shown)
VH: EVQLVESGGGLVQPGGSLRLSCAASGFTFLGYGIHWVRQAPGKGLEWVGWISPAGGSTDYADSVKGRFTISADTSKNTAYLQMNSLRAEDTAVYYCARGPFSPWVMDYWGQGTLVTVSS
VL: DIQMTQSPSSLSASVGDRVTITCRASQDVSTAVAWYQQKPGKAPKLLIYSASFLYSGVPSRFSGSGSGTDFTLTISSLQPEDFATYYCQQFPTYLPTFGQGTKVEIK
reduction of cortical Aβ1-40 (Aβ1-40 in wild-type mice; 24 or 48 hours): 20%
reduction of plasma Aβ1-40 (Aβ1-40 in wild-type mice; at 24 hr): 35%
Aβ reduction following ICV infusion [1]: 15-23%
reduction of Aβ1-40 and Aβ1-42 in cortex ([1]; both doses): 15-23%
reduction of Aβ1-40 and Aβ1-42 in hippocampus ([1]; both doses): 15-20%
concentration in brain [2, 3]: 0.9±0.6 μg/g and 5.9±4.3 nM
concentration in serum [2, 3]: 480 ± 210 µg/mL
concentration in brain [2, 4]: 3.0±1.6 μg/g and 20±10 nM
concentration in serum [2, 4]: 1500 ± 440 µg/mL
brain concentration as share of concentration in serum ([2]; 100 mg/kg single IP, 4 hours): ~0.07%
concentration in brain ([2]; 100 mg/kg single IP, 4 hours): 0.7±0.4 μg/g and 4.7±2.7 nM
concentration in serum ([2]; 100 mg/kg single IP, 4 hours): 1040±140 μg/mL and 6.9±0.9 μM
localization of antibody signal (mouse cortical neurons; 1 μM, 10 minutes to 3 hours, 37° C.): localized intracellularly
co-localization with vesicular compartment markers (mouse cortical neurons; TfR, VAMP4, LAMP1 co-staining): co-localized with markers for early endosomes and TGN, but not lysosomes
